Laboratory results published in the supplement of paper PMC10567573.

B1: ZNF511 (parent)
chain: HLYPADFRFDKPKKSRSPASAEAP

Variants of: B1
Assay: protein stability index of a GFP-peptide fusion (GPS, HEK-293T) (PSI 1-6); higher = more stable
Details: c terminus: a fixed tail appended
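Note: lentivirally expressed fusions sorted by FACS into six bins by GFP to DsRed ratio, PSI derived from sequencing read proportions per bin multiplied by bin number.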

| Variant | protein stability index |
| --- | --- |
| HLYQADFRFDKPKKSRSPASAEAP [P4Q] | 3.94 |
| HLYNADFRFDKPKKSRSPASAEAP [P4N] | 3.78 |
| HLYWADFRFDKPKKSRSPASAEAP [P4W] | 2.33 |
| HLYKADFRFDKPKKSRSPASAEAP [P4K] | 4.5 |
| HLYSADFRFDKPKKSRSPASAEAP [P4S] | 3.9 |
| HLYYADFRFDKPKKSRSPASAEAP [P4Y] | 2.73 |
| HLYVADFRFDKPKKSRSPASAEAP [P4V] | 3.24 |
| HLYTADFRFDKPKKSRSPASAEAP [P4T] | 3.77 |
| HLYLADFRFDKPKKSRSPASAEAP [P4L] | 3.56 |
| HLYIADFRFDKPKKSRSPASAEAP [P4I] | 3.56 |
| HLYRADFRFDKPKKSRSPASAEAP [P4R] | 3.73 |
| HLYMADFRFDKPKKSRSPASAEAP [P4M] | 3.43 |
| HLYPQDFRFDKPKKSRSPASAEAP [A5Q] | 2.16 |
| HLYPEDFRFDKPKKSRSPASAEAP [A5E] | 2.3 |
| HLYPTDFRFDKPKKSRSPASAEAP [A5T] | 3.11 |
| HLYPSDFRFDKPKKSRSPASAEAP [A5S] | 2.69 |
| HLYPNDFRFDKPKKSRSPASAEAP [A5N] | 2.29 |
| HLYPCDFRFDKPKKSRSPASAEAP [A5C] | 3.06 |
| HLYPMDFRFDKPKKSRSPASAEAP [A5M] | 2.48 |
| HLYPFDFRFDKPKKSRSPASAEAP [A5F] | 2.63 |
| HLYPKDFRFDKPKKSRSPASAEAP [A5K] | 2.97 |
| HLYPVDFRFDKPKKSRSPASAEAP [A5V] | 3.6 |
| HLYPDDFRFDKPKKSRSPASAEAP [A5D] | 2.32 |
| HLYPRDFRFDKPKKSRSPASAEAP [A5R] | 3.21 |

| Variant | protein stability index |
| --- | --- |
| HLYPHDFRFDKPKKSRSPASAEAP [A5H] | 3.06 |
| HLYPIDFRFDKPKKSRSPASAEAP [A5I] | 3.5 |
| HLYPYDFRFDKPKKSRSPASAEAP [A5Y] | 2.79 |
| HLYPWDFRFDKPKKSRSPASAEAP [A5W] | 1.63 |
| HLYPLDFRFDKPKKSRSPASAEAP [A5L] | 3.02 |
| HLYPPDFRFDKPKKSRSPASAEAP [A5P] | 4.01 |
| HLYPGDFRFDKPKKSRSPASAEAP [A5G] | 2.62 |
| HLYPAEFRFDKPKKSRSPASAEAP [D6E] | 2.1 |
| HLYPAIFRFDKPKKSRSPASAEAP [D6I] | 1.47 |
| HLYPAKFRFDKPKKSRSPASAEAP [D6K] | 2.22 |
| HLYPAHFRFDKPKKSRSPASAEAP [D6H] | 3 |
| HLYPALFRFDKPKKSRSPASAEAP [D6L] | 2.61 |
| HLYPAQFRFDKPKKSRSPASAEAP [D6Q] | 2.18 |
| HLYPANFRFDKPKKSRSPASAEAP [D6N] | 2.82 |
| HLYPARFRFDKPKKSRSPASAEAP [D6R] | 2.59 |
| HLYPAGFRFDKPKKSRSPASAEAP [D6G] | 3.23 |
| HLYPAPFRFDKPKKSRSPASAEAP [D6P] | 3.19 |
| HLYPATFRFDKPKKSRSPASAEAP [D6T] | 2.48 |
| HLYPAAFRFDKPKKSRSPASAEAP [D6A] | 2.12 |
| HLYPAWFRFDKPKKSRSPASAEAP [D6W] | 2.87 |
| HLYPACFRFDKPKKSRSPASAEAP [D6C] | 2.52 |
| HLYPAMFRFDKPKKSRSPASAEAP [D6M] | 1.55 |
| HLYPASFRFDKPKKSRSPASAEAP [D6S] | 3.17 |
| HLYPADFRADKPKKSRSPASAEAP [F9A] | 1.29 |

| Variant | protein stability index |
| --- | --- |
| HLYPADFRCDKPKKSRSPASAEAP [F9C] | 2.61 |
| HLYPADFRIDKPKKSRSPASAEAP [F9I] | 2.49 |
| HLYPADFRLDKPKKSRSPASAEAP [F9L] | 3.18 |
| HLYPADFRHDKPKKSRSPASAEAP [F9H] | 2.91 |
| HLYPADFREDKPKKSRSPASAEAP [F9E] | 1.88 |
| HLYPADFRDDKPKKSRSPASAEAP [F9D] | 2.1 |
| HLYPADFRKDKPKKSRSPASAEAP [F9K] | 4.12 |
| HLYPADFRGDKPKKSRSPASAEAP [F9G] | 2.63 |
| HLYPADPRFDKPKKSRSPASAEAP [F7P] | 4.24 |
| HLYPADHRFDKPKKSRSPASAEAP [F7H] | 3.98 |
| HLYPADMRFDKPKKSRSPASAEAP [F7M] | 4.38 |
| HLYPADGRFDKPKKSRSPASAEAP [F7G] | 4.42 |
| HLYPADIRFDKPKKSRSPASAEAP [F7I] | 3.94 |
| HLYPADWRFDKPKKSRSPASAEAP [F7W] | 2.09 |
| HLYPADDRFDKPKKSRSPASAEAP [F7D] | 4.63 |
| HLYPADYRFDKPKKSRSPASAEAP [F7Y] | 3.29 |
| HLYPADVRFDKPKKSRSPASAEAP [F7V] | 4.62 |
| HLYPADTRFDKPKKSRSPASAEAP [F7T] | 4.25 |
| HLYPADNRFDKPKKSRSPASAEAP [F7N] | 4.15 |
| HLYPADERFDKPKKSRSPASAEAP [F7E] | 5.23 |
| HLYPADARFDKPKKSRSPASAEAP [F7A] | 4.81 |
| HLYPADLRFDKPKKSRSPASAEAP [F7L] | 4.49 |
| HLYPADKRFDKPKKSRSPASAEAP [F7K] | 4.71 |
| HLYPADRRFDKPKKSRSPASAEAP [F7R] | 4.22 |

| Variant | protein stability index |
| --- | --- |
| HLYPADCRFDKPKKSRSPASAEAP [F7C] | 4.29 |
| HLYPADQRFDKPKKSRSPASAEAP [F7Q] | 4.62 |
| HLYPADSRFDKPKKSRSPASAEAP [F7S] | 4.25 |
| HLYPADFQFDKPKKSRSPASAEAP [R8Q] | 3.11 |
| HLYPADFTFDKPKKSRSPASAEAP [R8T] | 2.44 |
| HLYPADFKFDKPKKSRSPASAEAP [R8K] | 3.3 |
| HLYPADFDFDKPKKSRSPASAEAP [R8D] | 4.13 |
| HLYPADFSFDKPKKSRSPASAEAP [R8S] | 2.05 |
| HLYPADFLFDKPKKSRSPASAEAP [R8L] | 1.77 |
| HLYPADFYFDKPKKSRSPASAEAP [R8Y] | 2.37 |
| HLYPADFCFDKPKKSRSPASAEAP [R8C] | 2.8 |
| HLYPADFIFDKPKKSRSPASAEAP [R8I] | 2.03 |
| HLYPADFVFDKPKKSRSPASAEAP [R8V] | 1.6 |
| HLYPADFAFDKPKKSRSPASAEAP [R8A] | 2.61 |
| HLYPADFNFDKPKKSRSPASAEAP [R8N] | 3.1 |
| HLYPADFGFDKPKKSRSPASAEAP [R8G] | 2.53 |
| HLYPADFHFDKPKKSRSPASAEAP [R8H] | 2.82 |
| HLYPADFWFDKPKKSRSPASAEAP [R8W] | 1.8 |
| HLYPADFFFDKPKKSRSPASAEAP [R8F] | 2.37 |
| HLYPADFEFDKPKKSRSPASAEAP [R8E] | 3.93 |
| HLYPADFMFDKPKKSRSPASAEAP [R8M] | 2.64 |
| HLYPADFPFDKPKKSRSPASAEAP [R8P] | 4.07 |
